Our source for the Kd values is PMC8563995, “CCA-addition in the cold: Structural characterization of the psychrophilic CCA-adding enzyme from the permafrost bacterium Planococcus halocryophilus” (Computational and Structural Biotechnology Journal, 2021).

For the data set, the system named is GstCCA (CCA-adding enzyme, tRNA nucleotidyltransferase) (Geobacillus stearothermophilus). In words: EMSA. To be noted: 10 mM MgCl2; 37 °C; EMSA: 50 mM glycine/NaOH pH 8.5, 10 mM MgCl2, 2 mM DTT, 0.3 pmol tRNA, 0-5 µM enzyme, 10 min at 37 °C (GstCCA) or 4 °C and 30 °C (PhaCCA); 5% native PAGE at ….

As for yeast tRNAPhe lacking the CCA terminus, the Kd – broadly, the free concentration of one partner at which half of the binding sites on the other are occupied at equilibrium, for simple one-to-one binding – is 1300 nM.
